Results taken from the supplement of paper PMC9112550, “Optimization of the antimicrobial peptide Bac7 by deep mutational scanning” (BMC Biology, 2022).

Test system: Escherichia coli TOP10
Assay: shrunken log2 fold change of peptide-encoding DNA abundance (4.5 h post-induction vs induction); higher = less antimicrobial activity (less host growth inhibition)
Conditions: time post-induction: 4.5 h; library: site-saturation at positions 5, 18, 19, 20
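Note: peptides expressed intracellularly from a pBAD plasmid library in pooled LB shake-flask culture, induced with 0.3% L-arabinose, DNA abundance read by NGS, three biological replicates, DESeq2 with apeglm shrinkage.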

Question: Which “shrunken log2 fold change” value does the source give for RRIRRRPPRLPRPRPRPDNVPRP here?
Answer: The value was -0.211.

Question: Which “shrunken log2 fold change” value does the source give for RRIRRRPPRLPRPRPRPDQLPRP here?
Answer: Its value is -0.0202.

Question: How did the “shrunken log2 fold change” value turn out when RRIRRRPPRLPRPRPRPDRNPRP was run?
Answer: Its value is 0.00393.

Question: How did the “shrunken log2 fold change” value turn out when RRIRRRPPRLPRPRPRPDSAPRP was run?
Answer: Its value is 0.288.

Question: RRIRRRPPRLPRPRPRPDSPPRP was tested. Which “shrunken log2 fold change” value did it give?
Answer: Its value is 0.28.

Question: RRIRRRPPRLPRPRPRPDVCPRP was tested. Which “shrunken log2 fold change” value did it give?
Answer: The value was -0.000628.

Question: With RRIRRRPPRLPRPRPRPDWIPRP as the sequence, how does the “shrunken log2 fold change” value read?
Answer: Its value is -0.223.

Question: RRIRRRPPRLPRPRPRPDWRPRP was tested. Which “shrunken log2 fold change” value did it give?
Answer: Its value is 0.36.

Question: RRIRRRPPRLPRPRPRPEAVPRP was tested. Which “shrunken log2 fold change” value did it give?
Answer: The value was 1.53.

Question: How did the “shrunken log2 fold change” value turn out when RRIRRRPPRLPRPRPRPECEPRP was run?
Answer: Its value is 0.323.

Question: How did the “shrunken log2 fold change” value turn out when RRIRRRPPRLPRPRPRPEDIPRP was run?
Answer: Its value is 0.06.

Question: With RRIRRRPPRLPRPRPRPEFRPRP as the sequence, how does the “shrunken log2 fold change” value read?
Answer: Its value is 0.179.

Question: For RRIRRRPPRLPRPRPRPEIAPRP, which “shrunken log2 fold change” value is on record?
Answer: Its value is 0.84.

Question: How did the “shrunken log2 fold change” value turn out when RRIRRRPPRLPRPRPRPEIEPRP was run?
Answer: The value was 0.216.

Question: RRIRRRPPRLPRPRPRPEIIPRP was tested. Which “shrunken log2 fold change” value did it give?
Answer: The value was 0.0119.

Question: For RRIRRRPPRLPRPRPRPEKQPRP, which “shrunken log2 fold change” value is on record?
Answer: The value was 0.147.

Question: With RRIRRRPPRLPRPRPRPELAPRP as the sequence, how does the “shrunken log2 fold change” value read?
Answer: Its value is 0.927.

Question: Which “shrunken log2 fold change” value does the source give for RRIRRRPPRLPRPRPRPELCPRP here?
Answer: Its value is 0.101.

Question: For RRIRRRPPRLPRPRPRPELIPRP, which “shrunken log2 fold change” value is on record?
Answer: The value was 0.0314.

Question: Which “shrunken log2 fold change” value does the source give for RRIRRRPPRLPRPRPRPEMCPRP here?
Answer: Its value is 0.11.

Question: Which “shrunken log2 fold change” value does the source give for RRIRRRPPRLPRPRPRPEMFPRP here?
Answer: The value was -0.151.

Question: For RRIRRRPPRLPRPRPRPEMIPRP, which “shrunken log2 fold change” value is on record?
Answer: Its value is -0.00643.

Question: How did the “shrunken log2 fold change” value turn out when RRIRRRPPRLPRPRPRPENSPRP was run?
Answer: Its value is 0.118.

Question: With RRIRRRPPRLPRPRPRPEPPPRP as the sequence, how does the “shrunken log2 fold change” value read?
Answer: Its value is 1.02.

Question: With RRIRRRPPRLPRPRPRPERVPRP as the sequence, how does the “shrunken log2 fold change” value read?
Answer: The value was 0.125.

Question: Which “shrunken log2 fold change” value does the source give for RRIRRRPPRLPRPRPRPETAPRP here?
Answer: Its value is 0.658.

Question: With RRIRRRPPRLPRPRPRPETQPRP as the sequence, how does the “shrunken log2 fold change” value read?
Answer: The value was 0.164.

Question: Which “shrunken log2 fold change” value does the source give for RRIRRRPPRLPRPRPRPEVSPRP here?
Answer: Its value is 0.214.

Question: How did the “shrunken log2 fold change” value turn out when RRIRRRPPRLPRPRPRPEYVPRP was run?
Answer: The value was 0.0703.

Question: RRIRRRPPRLPRPRPRPFAYPRP was tested. Which “shrunken log2 fold change” value did it give?
Answer: The value was -0.0942.

Question: RRIRRRPPRLPRPRPRPFCIPRP was tested. Which “shrunken log2 fold change” value did it give?
Answer: The value was -0.174.

Question: How did the “shrunken log2 fold change” value turn out when RRIRRRPPRLPRPRPRPFCNPRP was run?
Answer: Its value is -0.259.

Question: Which “shrunken log2 fold change” value does the source give for RRIRRRPPRLPRPRPRPFCRPRP here?
Answer: Its value is 0.551.

Question: RRIRRRPPRLPRPRPRPFCVPRP was tested. Which “shrunken log2 fold change” value did it give?
Answer: The value was 1.05.

Question: How did the “shrunken log2 fold change” value turn out when RRIRRRPPRLPRPRPRPFCYPRP was run?
Answer: The value was -0.00369.

Question: With RRIRRRPPRLPRPRPRPFDIPRP as the sequence, how does the “shrunken log2 fold change” value read?
Answer: The value was -0.0362.

Question: Which “shrunken log2 fold change” value does the source give for RRIRRRPPRLPRPRPRPFEMPRP here?
Answer: Its value is 0.0983.

Question: With RRIRRRPPRLPRPRPRPFFHPRP as the sequence, how does the “shrunken log2 fold change” value read?
Answer: The value was 0.154.

Question: For RRIRRRPPRLPRPRPRPFGAPRP, which “shrunken log2 fold change” value is on record?
Answer: The value was 0.153.

Question: For RRIRRRPPRLPRPRPRPFGRPRP, which “shrunken log2 fold change” value is on record?
Answer: Its value is 0.114.

Question: For RRIRRRPPRLPRPRPRPFHYPRP, which “shrunken log2 fold change” value is on record?
Answer: The value was -0.259.

Question: With RRIRRRPPRLPRPRPRPFLCPRP as the sequence, how does the “shrunken log2 fold change” value read?
Answer: Its value is 0.219.

Question: For RRIRRRPPRLPRPRPRPFLGPRP, which “shrunken log2 fold change” value is on record?
Answer: Its value is 0.187.

Question: For RRIRRRPPRLPRPRPRPFNYPRP, which “shrunken log2 fold change” value is on record?
Answer: Its value is -0.0716.

Question: RRIRRRPPRLPRPRPRPFPWPRP was tested. Which “shrunken log2 fold change” value did it give?
Answer: Its value is -0.0263.

Question: For RRIRRRPPRLPRPRPRPFQAPRP, which “shrunken log2 fold change” value is on record?
Answer: Its value is 0.376.

Question: How did the “shrunken log2 fold change” value turn out when RRIRRRPPRLPRPRPRPFSGPRP was run?
Answer: Its value is -0.32.

Question: For RRIRRRPPRLPRPRPRPFTMPRP, which “shrunken log2 fold change” value is on record?
Answer: The value was -0.198.

Question: RRIRRRPPRLPRPRPRPFVCPRP was tested. Which “shrunken log2 fold change” value did it give?
Answer: Its value is 0.191.

Question: For RRIRRRPPRLPRPRPRPFVWPRP, which “shrunken log2 fold change” value is on record?
Answer: The value was -0.218.

Question: RRIRRRPPRLPRPRPRPFWPPRP was tested. Which “shrunken log2 fold change” value did it give?
Answer: The value was 0.312.

Question: For RRIRRRPPRLPRPRPRPFWYPRP, which “shrunken log2 fold change” value is on record?
Answer: Its value is -0.192.

Question: RRIRRRPPRLPRPRPRPFYGPRP was tested. Which “shrunken log2 fold change” value did it give?
Answer: Its value is -0.0114.

Question: Which “shrunken log2 fold change” value does the source give for RRIRRRPPRLPRPRPRPFYYPRP here?
Answer: Its value is -0.204.

Question: RRIRRRPPRLPRPRPRPGADPRP was tested. Which “shrunken log2 fold change” value did it give?
Answer: Its value is 0.725.

Question: For RRIRRRPPRLPRPRPRPGAIPRP, which “shrunken log2 fold change” value is on record?
Answer: Its value is 0.179.

Question: With RRIRRRPPRLPRPRPRPGARPRP as the sequence, how does the “shrunken log2 fold change” value read?
Answer: The value was 0.507.

Question: RRIRRRPPRLPRPRPRPGCYPRP was tested. Which “shrunken log2 fold change” value did it give?
Answer: Its value is 0.17.

Question: RRIRRRPPRLPRPRPRPGECPRP was tested. Which “shrunken log2 fold change” value did it give?
Answer: The value was 0.0146.

Question: Which “shrunken log2 fold change” value does the source give for RRIRRRPPRLPRPRPRPGFCPRP here?
Answer: Its value is 0.37.

Question: For RRIRRRPPRLPRPRPRPGFMPRP, which “shrunken log2 fold change” value is on record?
Answer: The value was 0.252.

Question: Which “shrunken log2 fold change” value does the source give for RRIRRRPPRLPRPRPRPGFSPRP here?
Answer: Its value is 0.131.

Question: RRIRRRPPRLPRPRPRPGFVPRP was tested. Which “shrunken log2 fold change” value did it give?
Answer: The value was 0.423.

Question: How did the “shrunken log2 fold change” value turn out when RRIRRRPPRLPRPRPRPGGEPRP was run?
Answer: Its value is 0.356.

Question: For RRIRRRPPRLPRPRPRPGGLPRP, which “shrunken log2 fold change” value is on record?
Answer: The value was 0.289.

Question: How did the “shrunken log2 fold change” value turn out when RRIRRRPPRLPRPRPRPGHFPRP was run?
Answer: Its value is -0.204.

Question: How did the “shrunken log2 fold change” value turn out when RRIRRRPPRLPRPRPRPGHGPRP was run?
Answer: The value was 1.04.

Question: For RRIRRRPPRLPRPRPRPGIIPRP, which “shrunken log2 fold change” value is on record?
Answer: Its value is 0.028.

Question: RRIRRRPPRLPRPRPRPGISPRP was tested. Which “shrunken log2 fold change” value did it give?
Answer: The value was 0.0929.

Question: With RRIRRRPPRLPRPRPRPGKLPRP as the sequence, how does the “shrunken log2 fold change” value read?
Answer: Its value is 0.0788.

Question: For RRIRRRPPRLPRPRPRPGKNPRP, which “shrunken log2 fold change” value is on record?
Answer: Its value is 0.16.

Question: With RRIRRRPPRLPRPRPRPGKPPRP as the sequence, how does the “shrunken log2 fold change” value read?
Answer: The value was 0.293.

Question: Which “shrunken log2 fold change” value does the source give for RRIRRRPPRLPRPRPRPGKQPRP here?
Answer: Its value is 0.254.

Question: RRIRRRPPRLPRPRPRPGLDPRP was tested. Which “shrunken log2 fold change” value did it give?
Answer: Its value is 0.161.

Question: For RRIRRRPPRLPRPRPRPGLPPRP, which “shrunken log2 fold change” value is on record?
Answer: Its value is 0.33.
